The source of these data is patent US20220227814A1 (NEVADA RESEARCH AND INNOVATION, published 2022).

Holding throughout (test): cell-based or functional assay
Assay [1] addresses T1, ComD1 receptor (Streptococcus pneumoniae).
The target of assay [2] is T2, ComD2 receptor (Streptococcus pneumoniae).
In assay [3] the target is T1, ComD1 receptor. This is another data set of the same source.
Assay [4] concerns the target T2, ComD2 receptor. The source holds these as a separate data set.
In assay [5] the target is T1, ComD1 receptor. The source holds these as a separate data set.
The target of assay [6] is T2, ComD2 receptor. The source holds these as a separate data set.

Bridge positions count the residues as written; N and C are the ends. Square brackets hold non-standard residues; d marks the D form. Ends that are not written are not given here. Dap = NC[C@H](N)C(=O)O

B1: CSP1-cyc(Orn6D10) (peptide)
peptide: EMRLSXFFRDFILQRKK
modifications: Orn (ornithine) at position 6; side chain-to-side chain lactam between Orn6 and Asp10
Consider B1, for which, in the assay with ComD1 receptor [1], the “maximal induction of comX compared to CSP1” value worked out at 100%. Also, the “fold decrease in fold potency compared to CSP1-cyc(Dab6E10) and CSP1-cyc(Dap6E10)” value with ComD2 receptor [2] was more than 30 fold. Besides, the “EC50 (reporter strain)” value in the assay with ComD1 receptor [3] is 193 nM; in the assay with ComD2 receptor [4], more than 1000 nM.

In the case of EMRLSKFFRDFILDRKK (lactam 6-14) [CSP1-cyc(K6D14)], the “EC50 (reporter strain)” value in the assay with ComD1 receptor [3] and with ComD2 receptor [4] was more than 1000 nM in each case.

Turning to AMRISRIIL[dD]FLFLRKK [CSP2-E1Ad10], the “EC50/IC50 (kind not distinguishable; β-gal reporter)” value with ComD1 receptor [5] was more than 1000 nM. For the same molecule, the “IC50 (ComD2 EC50/IC50; β-gal reporter)” value with ComD2 receptor [6] was 56.5 nM.

EMRLSXFFREFILQRKK (Dap at position 6; side chain-to-side chain lactam between Dap6 and Glu10) [CSP1-cyc(Dap6E10)]: the “fold potency compared to CSP1-cyc(Orn6D10)” value with ComD1 receptor [1] amounted to 10 fold. For the same molecule, in the assay with ComD1 receptor [1], the “maximal induction of comX compared to CSP1” value worked out at 100%. Moreover, in the assay with ComD2 receptor [2], the “fold potency compared to CSP2” value is approximately 4 fold. For the same molecule, the “EC50 (reporter strain)” value with ComD1 receptor [3] came out at 14.6 nM; with ComD2 receptor [4] it was 13.1 nM.

For EMRLSKFFREFILQRKK (lactam 6-10) [CSP1-cyc(K6E10)], the “EC50 (reporter strain)” value in the assay with ComD1 receptor [3] is 350 nM; in the assay with ComD2 receptor [4], more than 1000 nM.

Regarding EMRLSKFFRDFILQRKK (lactam 6-10) [CSP1-cyc(K6D10)], the “maximal induction of comX compared to CSP1” value with ComD1 receptor [1] stood at 44%. The “EC50 (reporter strain)” value with ComD1 receptor [3] is 258 nM.

For the molecule EMRLSKFFDDFILQRKK [CSP1 with Arg9 replaced with Asp (linear)], the “fold reduction in potency against CSP1” value with ComD1 receptor [1] is more than 100 fold.

As to EMRLSAFFRDFILQRKK [CSP1-K6A], the “EC50 (ComD1 EC50/IC50; β-gal reporter)” value in the assay with ComD1 receptor [5] is 51 nM. For the same molecule, the “EC50 (ComD2 EC50/IC50; β-gal reporter)” value with ComD2 receptor [6] turned out to be 24 nM.

As for AMRLS[Dap]FFREFILQRKK (lactam 6-10) [CSP1-E1A-cyc(Dap6E10)], the “fold inhibition potency compared to CSP2-E1Ad10” value in the assay with ComD2 receptor [2] is 3 fold. The “IC50 (reporter strain)” value with ComD1 receptor [3] came to 75.8 nM; with ComD2 receptor [4] it was 182 nM. For the same molecule, in the assay with ComD1 receptor [5], the “IC50 (ComD1 EC50/IC50; β-gal reporter)” value amounted to 75.8 nM. For the same molecule, in the assay with ComD2 receptor [6], the “IC50 (ComD2 EC50/IC50; β-gal reporter)” value amounted to 182 nM.

Turning to EMRISRIIL[dD]FLFLRKK [CSP2-d10], the “EC50 (ComD1 EC50/IC50; β-gal reporter)” value with ComD1 receptor [5] came to 513 nM. For the same molecule, the “EC50 (ComD2 EC50/IC50; β-gal reporter)” value in the assay with ComD2 receptor [6] was 2.86 nM.

On to EMRLSKFFRKFILDRKK (lactam 10-14) [CSP1-cyc(K10D14)], for which the “EC50 (reporter strain)” value in the assay with ComD1 receptor [3] was determined as 257 nM.

Turning to EMRLSXFFREFILQRKK (Dab at position 6; side chain-to-side chain lactam between Dab6 and Glu10) [CSP1-cyc(Dab6E10)], in the assay with ComD1 receptor [1], the “fold potency compared to CSP1-cyc(Orn6D10)” value was determined as 10 fold and the “maximal induction of comX compared to CSP1” value is 100%. For the same molecule, the “EC50 (reporter strain)” value with ComD1 receptor [3] is 12.2 nM. Moreover, the “EC50 (reporter strain)” value with ComD2 receptor [4] stood at 31.4 nM.

Take EMRISRIILDFLFLRKK [CSP2 (competence stimulating peptide 2)]: the results for the “EC50 (reporter strain)” value with ComD1 receptor [3] and in the assay with ComD2 receptor [4] were 1650 nM and 50.7 nM, respectively. Also, the “EC50 (ComD1 EC50/IC50; β-gal reporter)” value with ComD1 receptor [5] amounted to 1650 nM. The “EC50 (ComD2 EC50/IC50; β-gal reporter)” value in the assay with ComD2 receptor [6] came to 50.7 nM.

Regarding AMRLSXFFREFILQRKK (Dab at position 6; side chain-to-side chain lactam between Dab6 and Glu10) [CSP1-E1A-cyc(Dab6E10)], the “IC50 (reporter strain)” value with ComD1 receptor [3] came out at 173 nM. In the assay with ComD2 receptor [4], the “EC50/IC50 (kind not distinguishable; reporter strain)” value was more than 1000 nM. Also, the “IC50 (ComD1 EC50/IC50; β-gal reporter)” value with ComD1 receptor [5] worked out at 173 nM. Moreover, in the assay with ComD2 receptor [6], the “EC50/IC50 (kind not distinguishable; β-gal reporter)” value is more than 1 µM.

EMRLSKFFRDFILQRKK [CSP1 (competence stimulating peptide 1)]: in the assay with ComD1 receptor [3], the “EC50 (reporter strain)” value amounted to 10.3 nM. Also, the “EC50 (ComD1 EC50/IC50; β-gal reporter)” value in the assay with ComD1 receptor [5] amounted to 10.3 nM.

EMRLSXFFRDFILQRKK (Dap at position 6; side chain-to-side chain lactam between Dap6 and Asp10) [CSP1-cyc(Dap6D10)]: the “EC50 (reporter strain)” value was 435 nM in the assay with ComD1 receptor [3] and more than 1000 nM with ComD2 receptor [4].

Take AMRLS[Dap]FFREFILQR (lactam 6-10) [CSP1-E1A-des-K16K17-cyc(Dap6E10)]: the “fold inhibition potency compared to CSP1-E1A-cyc(Dap6E10)” value was approximately 10 fold in the assay with ComD1 receptor [1] and 3 fold with ComD2 receptor [2]. Moreover, the figures for the “IC50 (reporter strain)” value with ComD1 receptor [3] and in the assay with ComD2 receptor [4] were 7.57 nM and 67.2 nM, respectively. For the same molecule, in the assay with ComD1 receptor [5], the “IC50 (ComD1 EC50/IC50; β-gal reporter)” value was found to be 7.57 nM. In addition, the “IC50 (ComD2 EC50/IC50; β-gal reporter)” value in the assay with ComD2 receptor [6] worked out at 67.2 nM.

On to EMRLSKFFDDFILQRKK (lactam 6-9) [CSP1-cyc(K6D9)], for which the “EC50 (reporter strain)” value in the assay with ComD1 receptor [3] was more than 1000 nM; in the assay with ComD2 receptor [4] it was 528 nM.

For the molecule AMRLSKFFRDFILQRKK [CSP1-E1A], the “IC50 (ComD1 EC50/IC50; β-gal reporter)” value in the assay with ComD1 receptor [5] worked out at 85.7 nM. Further, the “EC50/IC50 (kind not distinguishable; β-gal reporter)” value with ComD2 receptor [6] was more than 10 µM.

Consider EMRLSXFFRDFILQRKK (Dab at position 6; side chain-to-side chain lactam between Dab6 and Asp10) [CSP1-cyc(Dab6D10)], for which the results for the “EC50 (reporter strain)” value in the assay with ComD1 receptor [3] and in the assay with ComD2 receptor [4] were 59.5 nM and more than 1000 nM, respectively.

B2: CSP1-cyc(Orn6E10) (peptide)
peptide: EMRLSXFFREFILQRKK
modifications: Orn (ornithine) at position 6; side chain-to-side chain lactam between Orn6 and Glu10
Turning to B2, the “EC50 (reporter strain)” value with ComD1 receptor [3] is 422 nM; with ComD2 receptor [4] it was more than 1000 nM.
